Assay results from article PMC3351170 (Nucleic Acids Research, 2012).

Columns and labels:
SEC [1] = molecular target: the molecule itself; assay: SEC
SEC [2] = molecular target: the molecule itself; assay: SEC; remark: listed apart in the source
AUC = molecular target: the molecule itself; assay: AUC

B1: SATB1 EFH-AAA mutant, full length (natural protein, mouse, UniProt Q60611 1-764, looked up)
chain: MDHLNEATQGKEHSEMSNNVSDPKGPPAKIARLEQNGSPLGRGRLGSTGGKMQGVPLKHSGHLMKTNLRKGTMLPVFCVVEHYENAIEYDCKEEHAAAVLVRKDMLFNQLIEMALLSLGYSHSSAAQAKGLIQVGKWNPVPLSYVTDAPDATVADMLQDVYAVVTLKIQLHSCPKLEDLPPEQWSHTTVRNALKDLLKDMNQSSLAKECPLSQSMISSIVNSTYYANVSAAKCQEFGRWYKHFKKTKDMMVEMDSLSELSQQGANHVNFGQQPVPGNTAEQPPSPAQLSHGSQPSVRTPLPNLHPGLVSTPISPQLVNQQLVMAQLLNQQYAVNRLLAQQSLNQQYLNHPPPVSRSMNKPLEQQVSTNTEVSSEIYQWVRDELKRAGISQAVFARVAFNRTQGLLSEILRKEEDPKTASQSLLVNLRAMQNFLQLPEAERDRIYQDERERSLNAASAMGPAPLLSTPPSRPPQVKTATLATERNGKPENNTMNINASIYDEIQQEMKRAKVSQALFAKVAATKSQGWLCELLRWKEDPSPENRTLWENLSMIRRFLSLPQPERDAIYEQESNAVHHHGDRPPHIIHVPAEQIQQQQQQQQQQQQQQQPPPPPPQPQPQPQAGPRLPPRQPTVASSAESDEENRQKTRPRTKISVEALGILQSFIQDVGLYPDEEAIQTLSAQLDLPKYTIIKFFQNQRYYLKHHGKLKDNSGLEVDVAEYKDEELLKDLEESVQDKNANTLFSVKLEEELSVEGSTDVNADLKD
binding result (SEC [1]): binds

B2: SATB1 ubiquitin-like domain (ULD), residues 71-172 (domain or fragment, mouse, UniProt Q60611 71-172, looked up)
chain: GTMLPVFCVVEHYENAIEYDCKEEHAEFVLVRKDMLFNQLIEMALLSLGYSHSSAAQAKGLIQVGKWNPVPLSYVTDAPDATVADMLQDVYHVVTLKIQLHS
stoichiometry N (SEC [2]): 4

B3: SATB1 KWN-AAA mutant, full length (natural protein, mouse, UniProt Q60611 1-764, looked up)
chain: MDHLNEATQGKEHSEMSNNVSDPKGPPAKIARLEQNGSPLGRGRLGSTGGKMQGVPLKHSGHLMKTNLRKGTMLPVFCVVEHYENAIEYDCKEEHAEFVLVRKDMLFNQLIEMALLSLGYSHSSAAQAKGLIQVGAAAPVPLSYVTDAPDATVADMLQDVYHVVTLKIQLHSCPKLEDLPPEQWSHTTVRNALKDLLKDMNQSSLAKECPLSQSMISSIVNSTYYANVSAAKCQEFGRWYKHFKKTKDMMVEMDSLSELSQQGANHVNFGQQPVPGNTAEQPPSPAQLSHGSQPSVRTPLPNLHPGLVSTPISPQLVNQQLVMAQLLNQQYAVNRLLAQQSLNQQYLNHPPPVSRSMNKPLEQQVSTNTEVSSEIYQWVRDELKRAGISQAVFARVAFNRTQGLLSEILRKEEDPKTASQSLLVNLRAMQNFLQLPEAERDRIYQDERERSLNAASAMGPAPLLSTPPSRPPQVKTATLATERNGKPENNTMNINASIYDEIQQEMKRAKVSQALFAKVAATKSQGWLCELLRWKEDPSPENRTLWENLSMIRRFLSLPQPERDAIYEQESNAVHHHGDRPPHIIHVPAEQIQQQQQQQQQQQQQQQPPPPPPQPQPQPQAGPRLPPRQPTVASSAESDEENRQKTRPRTKISVEALGILQSFIQDVGLYPDEEAIQTLSAQLDLPKYTIIKFFQNQRYYLKHHGKLKDNSGLEVDVAEYKDEELLKDLEESVQDKNANTLFSVKLEEELSVEGSTDVNADLKD
stoichiometry N (AUC): 2
